*1 amine or outer side, *2 acyl side, *3 side chain or, on linkers, in order; H or OH if unused. Bridges are numbered along the chain shown (N, C = ends). Where no end group is shown, it is not given here. [ ]: non-standard residue; d: D form. formula (I) linker = non-peptide linker -N(R1)-C(R2)(R3)-C(R4)(R5)- (R1 H, R2 H, R3 CH3, R4 H, R5 C(O)NH-tBu), its N is acylated by the C-terminal carbonyl and its C(R4)(R5) carbon is bonded to the N-terminal N; X3 = 3‑aminomethyl‑4‑(4-(1-piperazinyl)phenyl)benzoic acid, O=C(c1ccc(-c2ccc(N3CCN([*:3])CC3)cc2)c(CN[*:1])c1)[*:2]; Thr(OMe) = O-methyl-threonine, CO[C@H](C)[C@H](N[*:1])C(=O)[*:2]; dPhe(4-CH2NH2) = NCc1ccc(C[C@@H](N)C(=O)O)cc1; Phe(4-CH2NH2) = NCc1ccc(C[C@H](N)C(=O)O)cc1; Hyp = O=C(O)[C@@H]1C[C@@H](O)CN1; d(β3hK) = NCCCC[C@@H](N)CC(=O)O; β3hK = NCCCC[C@H](N)CC(=O)O
B1: Compound No. 517 (peptide)
peptide: P[X3]LDT
modifications: bridge (positions not given here); not fully specified (residue 2, bridges); also: homodimer: diphenic acid diamide on piperazine N of X2 joins two copies
notes: also called ET3764; ET03764
B2: Compound No. 40 (peptide)
peptide: PFLD[Thr(OMe)]
modifications: bridge N-C; not fully specified (bridges); printed as Pro Phe Leu Asp X
notes: macrocycle of formula (I); R1 H, R2 H, R3 CH3, R4 H, R5 C(O)-NH-tert-Butyl
B3: Compound No. 231 (peptide)
peptide: PR[β3hK]LDT
modifications: bridge N-C; not fully specified (bridges); also: macrocycle closed by non-peptide linker -NH-CH(CH3)-CH(C(O)NH-tBu)- between Pro1 N and C-terminal C
notes: macrocycle of formula (I)
B4: Compound No. 253 (peptide)
peptide: cyclo(P[dPhe(4-CH2NH2)][β3hK]LDI)
modifications: also: macrocycle closed by non-peptide linker -NH-CH(CH3)-CH(C(O)NH-tBu)- between Pro1 N and C-terminal C
notes: macrocycle of formula (I)
B5: Compound No. 254 (peptide)
peptide: cyclo(P[Phe(4-CH2NH2)][β3hK]LDV)
modifications: also: macrocycle closed by non-peptide linker -NH-CH(CH3)-CH(C(O)NH-tBu)- between Pro1 N and C-terminal C
notes: macrocycle of formula (I)

What was measured:
[1] = target: T1, integrin α4β7 on human cells (human, UniProt P13612 34-1032; P26010 20-798); assay: competition with a saturating amount of MAdCAM, flow cytometry on α4β7+ Th memory cells in human whole blood
T1 construct: whole, on cells; also called a4b7; alpha-4-beta-7 integrin
T1 sequence (P13612 34-1032, chain 1 of 2): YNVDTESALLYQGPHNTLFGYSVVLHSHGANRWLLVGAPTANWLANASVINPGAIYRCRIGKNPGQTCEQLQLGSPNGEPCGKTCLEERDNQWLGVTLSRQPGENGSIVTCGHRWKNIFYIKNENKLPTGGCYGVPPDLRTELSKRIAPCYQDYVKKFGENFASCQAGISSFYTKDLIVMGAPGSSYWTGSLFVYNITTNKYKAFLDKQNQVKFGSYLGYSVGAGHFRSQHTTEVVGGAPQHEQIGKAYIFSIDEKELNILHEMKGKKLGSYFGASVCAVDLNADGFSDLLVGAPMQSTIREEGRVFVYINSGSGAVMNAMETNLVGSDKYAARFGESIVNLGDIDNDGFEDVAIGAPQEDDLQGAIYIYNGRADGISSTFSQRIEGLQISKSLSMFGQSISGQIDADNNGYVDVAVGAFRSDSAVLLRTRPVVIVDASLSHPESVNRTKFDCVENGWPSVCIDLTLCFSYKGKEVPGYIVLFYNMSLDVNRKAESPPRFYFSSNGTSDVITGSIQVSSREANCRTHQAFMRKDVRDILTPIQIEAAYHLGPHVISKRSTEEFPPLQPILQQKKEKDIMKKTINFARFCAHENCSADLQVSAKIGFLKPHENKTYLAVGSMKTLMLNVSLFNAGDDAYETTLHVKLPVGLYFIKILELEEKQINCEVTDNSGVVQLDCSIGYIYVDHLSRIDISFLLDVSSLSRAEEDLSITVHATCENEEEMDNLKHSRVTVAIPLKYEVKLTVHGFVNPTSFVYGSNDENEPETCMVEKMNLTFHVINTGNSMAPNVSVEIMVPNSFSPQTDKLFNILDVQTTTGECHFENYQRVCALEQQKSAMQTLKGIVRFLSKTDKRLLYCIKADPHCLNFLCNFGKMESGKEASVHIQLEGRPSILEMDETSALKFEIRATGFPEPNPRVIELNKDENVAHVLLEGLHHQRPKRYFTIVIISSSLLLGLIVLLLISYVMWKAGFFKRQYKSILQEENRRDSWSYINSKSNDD
T1 sequence (P26010 20-798, chain 2 of 2): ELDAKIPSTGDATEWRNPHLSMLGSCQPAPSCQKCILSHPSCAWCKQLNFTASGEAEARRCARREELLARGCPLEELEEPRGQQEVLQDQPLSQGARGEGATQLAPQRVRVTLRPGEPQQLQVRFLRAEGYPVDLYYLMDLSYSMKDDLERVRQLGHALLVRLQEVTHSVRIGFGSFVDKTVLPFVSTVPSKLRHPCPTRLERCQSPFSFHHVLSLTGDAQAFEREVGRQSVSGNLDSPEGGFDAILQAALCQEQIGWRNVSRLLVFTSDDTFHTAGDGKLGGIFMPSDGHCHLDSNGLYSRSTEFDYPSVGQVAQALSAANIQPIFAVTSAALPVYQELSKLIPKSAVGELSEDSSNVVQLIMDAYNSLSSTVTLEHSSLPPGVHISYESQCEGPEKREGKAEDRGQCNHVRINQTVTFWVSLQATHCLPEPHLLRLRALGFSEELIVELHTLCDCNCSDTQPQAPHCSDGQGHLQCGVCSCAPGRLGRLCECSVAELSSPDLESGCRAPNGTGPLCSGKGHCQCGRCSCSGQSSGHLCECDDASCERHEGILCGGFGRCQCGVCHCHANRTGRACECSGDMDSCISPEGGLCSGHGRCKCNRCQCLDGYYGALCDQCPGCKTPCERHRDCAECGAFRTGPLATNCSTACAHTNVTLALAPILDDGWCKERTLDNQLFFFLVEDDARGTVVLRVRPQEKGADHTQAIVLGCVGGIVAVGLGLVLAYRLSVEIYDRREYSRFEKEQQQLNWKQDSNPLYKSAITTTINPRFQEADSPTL

[2] = target: T1, integrin α4β7 on human cells; assay: cell-based or functional assay
[3] = target: T2, integrin α4β1 on human cells (human, UniProt P13612 34-1032; P05556 21-798); assay: VCAM-1 competition, FACS on α4β7-negative Th memory cells, human whole blood
T2 construct: whole, on cells; also called a4b1

[4] = target: integrin α4β7 on RPMI8866 human cells (human, UniProt P13612 34-1032; P26010 20-798); assay: cell-based or functional assay
Chain of integrin α4β7 on RPMI8866 human cells (P13612 34-1032, chain 1 of 2): as the sequence (P13612 34-1032, chain 1 of 2) above
Chain of integrin α4β7 on RPMI8866 human cells (P26010 20-798, chain 2 of 2): as the sequence (P26010 20-798, chain 2 of 2) above

[5] = target: T3, recombinant integrin α4β1 (R&D Systems, 5397-A3-050) (UniProt P13612 34-970; P05556 21-728); assay: IC50 on α4β1 / IC50 on α4β7
T3 construct: bought; coated on the ELISA plate; also called a4b1; α4β1 integrin
T3 sequence (P13612 34-970, chain 1 of 2): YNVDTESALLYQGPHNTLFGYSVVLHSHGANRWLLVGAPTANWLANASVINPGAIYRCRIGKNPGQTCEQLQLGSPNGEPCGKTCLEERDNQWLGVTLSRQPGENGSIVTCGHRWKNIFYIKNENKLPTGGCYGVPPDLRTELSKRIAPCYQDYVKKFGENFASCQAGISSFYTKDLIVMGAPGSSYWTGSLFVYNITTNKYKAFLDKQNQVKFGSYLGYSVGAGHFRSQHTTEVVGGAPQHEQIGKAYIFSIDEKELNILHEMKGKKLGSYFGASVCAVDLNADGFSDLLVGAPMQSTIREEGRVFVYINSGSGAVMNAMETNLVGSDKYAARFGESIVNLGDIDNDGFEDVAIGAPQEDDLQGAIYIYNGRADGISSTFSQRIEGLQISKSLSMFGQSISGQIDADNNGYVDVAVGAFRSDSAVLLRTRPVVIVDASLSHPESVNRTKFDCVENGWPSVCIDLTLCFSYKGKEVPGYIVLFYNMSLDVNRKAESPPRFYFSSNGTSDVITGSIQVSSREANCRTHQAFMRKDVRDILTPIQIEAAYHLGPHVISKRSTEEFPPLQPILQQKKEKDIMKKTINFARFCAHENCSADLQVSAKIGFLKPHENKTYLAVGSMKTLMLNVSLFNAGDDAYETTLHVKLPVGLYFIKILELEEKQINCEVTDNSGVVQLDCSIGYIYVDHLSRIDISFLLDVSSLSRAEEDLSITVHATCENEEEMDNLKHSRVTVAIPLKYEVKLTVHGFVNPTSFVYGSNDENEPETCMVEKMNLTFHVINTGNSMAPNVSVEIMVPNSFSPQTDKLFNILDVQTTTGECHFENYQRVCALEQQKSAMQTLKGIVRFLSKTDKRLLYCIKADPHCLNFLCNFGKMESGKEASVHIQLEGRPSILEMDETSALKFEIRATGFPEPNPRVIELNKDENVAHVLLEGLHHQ
T3 sequence (P05556 21-728, chain 2 of 2): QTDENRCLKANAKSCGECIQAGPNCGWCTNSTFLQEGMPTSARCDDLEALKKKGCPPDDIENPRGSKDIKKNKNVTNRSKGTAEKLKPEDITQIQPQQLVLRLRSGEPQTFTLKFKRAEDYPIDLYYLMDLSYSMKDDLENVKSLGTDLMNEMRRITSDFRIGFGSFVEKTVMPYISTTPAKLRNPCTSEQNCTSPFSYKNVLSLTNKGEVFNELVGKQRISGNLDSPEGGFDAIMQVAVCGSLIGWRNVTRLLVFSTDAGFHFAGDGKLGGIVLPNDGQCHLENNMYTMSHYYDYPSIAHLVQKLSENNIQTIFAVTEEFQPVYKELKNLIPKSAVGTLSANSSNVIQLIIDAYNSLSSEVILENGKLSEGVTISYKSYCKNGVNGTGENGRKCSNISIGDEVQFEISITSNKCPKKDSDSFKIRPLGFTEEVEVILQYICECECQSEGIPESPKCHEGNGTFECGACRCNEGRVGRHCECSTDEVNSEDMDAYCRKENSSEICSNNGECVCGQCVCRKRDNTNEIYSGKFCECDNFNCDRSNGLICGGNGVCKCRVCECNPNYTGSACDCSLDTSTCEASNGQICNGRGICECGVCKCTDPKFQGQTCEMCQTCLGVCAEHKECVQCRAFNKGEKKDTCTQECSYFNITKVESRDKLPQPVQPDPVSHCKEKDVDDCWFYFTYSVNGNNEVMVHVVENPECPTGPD
Description: (§1) The plate was incubated at 4° C. overnight. […] The plate was then incubated for 1 hour at room temperature. The plate was washed three times with wash buffer (50 mM Tris, 100 mM NaCl, 1 mM MnCl₂, 0.05% Tween). To each well, 50 μl of compound diluted in assay buffer was added by transfer from a compound serial dilution plate. […] The plate was incubated at room temperature with shaking (300 rpm) for 2 hours to reach binding equilibrium. Then the plate was washed three times in wash buffer and 100 μl anti-human IgG Fc specific-HRP (Abcam, Ab97225) diluted at 1:2000 in assay buffer was added to each well. The plate was incubated at room temperature for 1 hour under agitation.
(§2) The plate was incubated at 4° C. overnight. […] The plate was then incubated for 1 hour at room temperature. The plate was washed three times with wash buffer (50 mM Tris, 100 mM NaCl, 1 mM MnCl₂, 0.05% Tween). To each well, 50 μl of compound diluted in assay buffer was added by transfer from a compound serial dilution plate. […] The plate was incubated at room temperature with shaking (300 rpm) for 2 hours to reach binding equilibrium.

[6] = target: T4, recombinant integrin α4β7 (R&D Systems, 5397-A3-050) (UniProt P13612 34-970; P26010 20-723); assay: competition ELISA, MAdCAM-Fc on coated α4β7
T4 construct: bought; coated on the ELISA plate; also called a4b7; α4β7 integrin
Description: as §1
T4 sequence (P13612 34-970, chain 1 of 2): as the sequence (P13612 34-970, chain 1 of 2) above
T4 sequence (P26010 20-723, chain 2 of 2): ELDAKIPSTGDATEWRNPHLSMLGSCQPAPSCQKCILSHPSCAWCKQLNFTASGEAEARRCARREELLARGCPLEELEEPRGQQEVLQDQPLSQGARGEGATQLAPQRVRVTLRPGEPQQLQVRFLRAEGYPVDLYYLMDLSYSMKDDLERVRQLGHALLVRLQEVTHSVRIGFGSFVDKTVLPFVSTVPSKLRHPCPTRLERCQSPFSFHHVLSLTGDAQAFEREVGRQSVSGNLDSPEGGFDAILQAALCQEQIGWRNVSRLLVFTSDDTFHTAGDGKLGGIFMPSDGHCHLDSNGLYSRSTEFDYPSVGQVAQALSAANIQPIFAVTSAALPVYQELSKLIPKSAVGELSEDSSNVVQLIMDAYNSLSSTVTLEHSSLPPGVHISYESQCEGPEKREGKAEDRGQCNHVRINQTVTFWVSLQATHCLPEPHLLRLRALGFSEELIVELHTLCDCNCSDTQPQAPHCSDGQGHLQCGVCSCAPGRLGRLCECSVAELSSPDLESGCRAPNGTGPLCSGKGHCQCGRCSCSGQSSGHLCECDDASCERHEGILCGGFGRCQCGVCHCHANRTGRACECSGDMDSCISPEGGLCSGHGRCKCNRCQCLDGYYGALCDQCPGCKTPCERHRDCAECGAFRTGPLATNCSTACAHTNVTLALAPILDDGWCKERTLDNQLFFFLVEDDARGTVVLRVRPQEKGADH

[7] = target: T3, recombinant integrin α4β1 (R&D Systems, …); assay: competition ELISA, VCAM-Fc on coated α4β1
Description: as §1

[8] = target: T5, recombinant integrin α4β1 (R&D Systems, 5397-A3-050 [sic]) (UniProt P13612 34-970; P05556 21-728); assay: ratio of ELISA IC50s, α4β1 over α4β7
T5 construct: coated on the ELISA plate at 0.5 µg/ml; the printed catalogue number is the same as for α4β7; also called a4b1; α4β1 integrin
T5 sequence (P13612 34-970, chain 1 of 2): as the sequence (P13612 34-970, chain 1 of 2) above
T5 sequence (P05556 21-728, chain 2 of 2): as the sequence (P05556 21-728, chain 2 of 2) above
Description: as §1, §2

[9] = target: T6, recombinant integrin α4β7 (R&D Systems, 5397-A3-050) (UniProt P13612 34-970; P26010 20-723); assay: α4β7-MAdCAM-1 competition ELISA
T6 construct: coated on the ELISA plate at 1 µg/ml; also called a4b7; α4β7 integrin
Description: as §1
T6 sequence (P13612 34-970, chain 1 of 2): as the sequence (P13612 34-970, chain 1 of 2) above
T6 sequence (P26010 20-723, chain 2 of 2): as the sequence (P26010 20-723, chain 2 of 2) above

[10] = target: T5, recombinant integrin α4β1 (R&D Systems, …); assay: α4β1-VCAM-1 competition ELISA
Description: as §1

| IC50 [9] | IC50 [10] | also measured | Binder |
| --- | --- | --- | --- |
| – | – | EC50 [1]: 38 nM; IC50 in the RPM18866 cell adhesion assay [2]: 9.9 nM; IC50 [3]: 600 nM | B1 |
| – | – | RPMI8866 Adhesion a4b7/MAdCAM IC50 [4]: 11.2 µM | [Hyp]FLDT (linker N-C via formula (I) linker) [Compound No. 32] |
| – | – | ELISA Assay Ratio b1/b7 [5]: 1.9; IC50 [6]: 63 nM; IC50 [7]: 119 nM | B2 |
| 54 nM | 447 nM | ELISA Assay Ratio b1/b7 [8]: 8.2 | PYXXDT (X^z dPip; X^1 tertbutylAla, macrocycle of formula (I)) [Compound No. 150] |
| – | 1090 nM | – | P[dR][β3hK]LDT (bridge N-C; not fully specified (bridges); printed as Pro X1 X2 Leu Asp Thr, macrocycle of formula (I)) [Compound No. 217] |
| 96 nM | 1740 nM | ELISA Assay Ratio b1/b7 [8]: 18.2 | PF[d(β3hK)]LDI (bridge N-C; not fully specified (bridges); printed as Pro Phe X Leu Asp Ile, macrocycle of formula (I)) [Compound No. 220] |
| – | 993 nM | – | B3 |
| – | 2920 nM | – | PXGLDT (X^y (4-aminomethyl-Phe), macrocycle of formula (I)) [Compound No. 165] |
| – | 1380 nM | – | PXVLDT (X^y Tyr(OAllyl); X^z dVal, macrocycle of formula (I)) [Compound No. 166] |
| – | 2000 nM | – | PXSLDT (X^y Tyr(OAllyl); X^z dSer, macrocycle of formula (I)) [Compound No. 167] |
| 33 nM | 413 nM | – | P[Phe(4-CH2NH2)][β3hK]LDI (bridge N-C; not fully specified (bridges); printed as Pro X1 X2 Leu Asp Ile, macrocycle of formula (I)) [Compound No. 215] |
| 69 nM | 1090 nM | – | B4 |
| 55 nM | 1800 nM | ELISA Assay Ratio b1/b7 [8]: 33 | B5 |
